Here are results for 1 molecule from paper PMC9757750 (Science Advances, 2022).

Test [1] has as its target Flag-LegA15 used in the GST pulldown of Fig. 2E (Legionella pneumophila Philadelphia, UniProt Q5ZSR1). Put plainly: pull-down. Conditions: both partners purified.
Test [2] concerns the target 6×His-LegA15, full-length (Legionella pneumophila Philadelphia, UniProt Q5ZSR1 1-471). Put plainly: pull-down. The following applies: both partners purified.

B1: GST-p115 (1 to 651), ND (domain or fragment, human, UniProt O60763 1-651, looked up)
chain: MNFLRGVMGGQSAGPQHTEAETIQKLCDRVASSTLLDDRRNAVRALKSLSKKYRLEVGIQAMEHLIHVLQTDRSDSEIIGYALDTLYNIISNEEEEEVEENSTRQSEDLGSQFTEIFIKQQENVTLLLSLLEEFDFHVRWPGVKLLTSLLKQLGPQVQQIILVSPMGVSRLMDLLADSREVIRNDGVLLLQALTRSNGAIQKIVAFENAFERLLDIISEEGNSDGGIVVEDCLILLQNLLKNNNSNQNFFKEGSYIQRMKPWFEVGDENSGWSAQKVTNLHLMLQLVRVLVSPTNPPGATSSCQKAMFQCGLLQQLCTILMATGVPADILTETINTVSEVIRGCQVNQDYFASVNAPSNPPRPAIVVLLMSMVNERQPFVLRCAVLYCFQCFLYKNQKGQGEIVSTLLPSTIDATGNSVSAGQLLCGGLFSTDSLSNWCAAVALAHALQENATQKEQLLRVQLATSIGNPPVSLLQQCTNILSQGSKIQTRVGLLMLLCTWLSNCPIAVTHFLHNSANVPFLTGQIAENLGEEEQLVQGLCALLLGISIYFNDNSLESYMKEKLKQLIEKRIGKENFIEKLGFISKHELYSRASQKPQPNFPSPEYMIFDHEFTKLVKELEGVITKAIYKSSEEDKKEEEVKKTLEQHDNI
notes: also called N-terminal ARM domain; globular head
Regarding B1, the binding result in test [1] and in test [2] was “binds” each time.
